Values quoted from earlier work as cited in article PMC7555924.

Assays:
Cys1 = Cys1 (UniProt position 1, -----CGVPAI); details: fully reduced (all disulfides cleaved), molten globule-like conformation
Cys47 = Cys47 (UniProt position 48, SLKASCLYGQL); details: not stated (the Cys47 thiolate is described as ion-paired with Lys54)
Cys94 = Cys94 (UniProt position 94, GSRNLCNIPCS); details: fully reduced (all disulfides cleaved), molten globule-like conformation
Cys95 = Cys95 (UniProt position 121, SKYPNCAYKTT); details: fully reduced (all disulfides cleaved), molten globule-like conformation
Cys75 = Cys75 (UniProt position 99, FGDELCKVASL); details: fully reduced (all disulfides cleaved), molten globule-like conformation

## Chymotrypsinogen A (reduced, rChTg) (Bos taurus)
Cys1
  pKa: 8.1

## Glutathione S-transferase P1-1 (GSTP1-1) (Homo sapiens)
Cys47
  pKa: 3.5

## Lysozyme C (reduced, rLyz) (Gallus gallus)
Cys94
  pKa: 6.6

## Ribonuclease A (reduced, rRNase) (Bos taurus)
Cys95
  pKa: 7.9

## Serum albumin (reduced, rBSA) (Bos taurus)
Cys75
  pKa: 6.6
